Article PMC11971276 (Nature Communications, 2025)

Legend:
recombinant CCN2 = recombinant CCN2 (UniProt P29279); experiment: ELISA
[1] = biological target: Human CCN2 tagged with human Fc (human) (UniProt P29279); experiment: SPR
[2] = biological target: human CCN2 (R&D Systems) (human) (UniProt P29279); experiment: electrochemiluminescence assay
[3] = biological target: biotinylated human CCN2 (human) (UniProt P29279); experiment: competition electrochemiluminescence assay
biotinylated human CCN2 = biotinylated human CCN2 (Homo sapiens, UniProt P29279, biotin (sites not given)); experiment: competition electrochemiluminescence assay
Sequence of biotinylated human CCN2 (P29279 27-349): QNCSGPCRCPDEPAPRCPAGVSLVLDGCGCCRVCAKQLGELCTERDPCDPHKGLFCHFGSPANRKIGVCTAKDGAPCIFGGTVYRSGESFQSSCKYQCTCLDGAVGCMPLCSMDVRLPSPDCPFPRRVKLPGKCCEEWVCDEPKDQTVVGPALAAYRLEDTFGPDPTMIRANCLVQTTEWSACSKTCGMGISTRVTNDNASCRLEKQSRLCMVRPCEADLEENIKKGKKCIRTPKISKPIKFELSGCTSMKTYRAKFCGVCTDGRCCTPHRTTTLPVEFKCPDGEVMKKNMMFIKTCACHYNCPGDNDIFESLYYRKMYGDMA

Sequence of Human CCN2 tagged with human Fc (human) (P29279 27-349): as above
Sequence of biotinylated human CCN2 (human) (P29279 27-349): as above
Sequence of human CCN2 (R&D Systems) (human) (P29279 27-349): as above
Sequence of recombinant CCN2 (P29279 27-349): as above

EC50 (recombinant CCN2) [nM] | Kd [1] [nM] | fold higher affinity than pamrevlumab [1] [fold] | fold slower dissociation than pamrevlumab [1] [fold] | relative potency [%], post-nebulization [2] [%] | IC50 [3] [nM] | IC50 (biotinylated human CCN2) [nM] | Molecule
0.39 | 0.06 | 364 | 169 | 100 | 0.35 | – | PRS-220 (designed binder)
– | – | – | – | – | – | 1.14 | pamrevlumab (antibody, V domains shown) VH: EGQLVQSGGGLVHPGGSLRLSCAGSGFTFSSYGMHWVRQAPGKGLEWVSGIGTGGGTYSTDSVKGRFTISRDNAKNSLYLQMNSLRAEDMAVYYCARGDYYGSGSFFDCWGQGTLVTVSS VL: DIQMTQSPSSLSASVGDRVTITCRASQGISSWLAWYQQKPEKAPKSLIYAASSLQSGVPSRFSGSGSGTDFTLTISSLQPEDFATYYCQQYNSYPPTFGQGTKLEIK
